The target of this assay is biotinylated CD19 (UniProt P15391). As to the kind of experiment: yeast surface display of the scFv, flow cytometry titration of biotinylated CD19, 1:1 equilibrium binding fit, mean±SD of 3 trials. (In flow cytometry, cells or beads pass a laser one at a time.)

Data on one substance can be found in US20250320291A1.

In general, Kd refers to the free concentration of one partner at which half of the binding sites on the other are occupied at equilibrium, for simple one-to-one binding. Lower therefore signals higher affinity.

Sequence of UniProt P15391 (P15391 20-291 limits assumed): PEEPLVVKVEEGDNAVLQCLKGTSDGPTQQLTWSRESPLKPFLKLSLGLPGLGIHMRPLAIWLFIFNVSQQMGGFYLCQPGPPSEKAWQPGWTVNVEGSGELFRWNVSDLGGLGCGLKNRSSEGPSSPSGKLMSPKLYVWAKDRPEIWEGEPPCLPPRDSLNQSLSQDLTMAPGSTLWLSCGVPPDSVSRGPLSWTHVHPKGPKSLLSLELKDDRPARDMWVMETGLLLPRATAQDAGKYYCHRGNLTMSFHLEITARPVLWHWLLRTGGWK

Regarding FMC63 parental murine anti-CD19 scFv, the Kd was determined as 4.8 nM.
